Test results published in US7563760 (GENETICS INSTITUTE, dated 2009).

Tests used:
[1] = biological target: T1, P-selectin expressed on the surface of CHO cells (CHO:P-selectin cell line) (UniProt P16109 42-830, limits assumed); assay: plate coated with chimera; adhesion of 3H-labelled CHO:P-selectin cells (FIG. 14)
T1 construct: whole, on cells; also called P-selectin expressing CHO cells
T1 sequence (looked up): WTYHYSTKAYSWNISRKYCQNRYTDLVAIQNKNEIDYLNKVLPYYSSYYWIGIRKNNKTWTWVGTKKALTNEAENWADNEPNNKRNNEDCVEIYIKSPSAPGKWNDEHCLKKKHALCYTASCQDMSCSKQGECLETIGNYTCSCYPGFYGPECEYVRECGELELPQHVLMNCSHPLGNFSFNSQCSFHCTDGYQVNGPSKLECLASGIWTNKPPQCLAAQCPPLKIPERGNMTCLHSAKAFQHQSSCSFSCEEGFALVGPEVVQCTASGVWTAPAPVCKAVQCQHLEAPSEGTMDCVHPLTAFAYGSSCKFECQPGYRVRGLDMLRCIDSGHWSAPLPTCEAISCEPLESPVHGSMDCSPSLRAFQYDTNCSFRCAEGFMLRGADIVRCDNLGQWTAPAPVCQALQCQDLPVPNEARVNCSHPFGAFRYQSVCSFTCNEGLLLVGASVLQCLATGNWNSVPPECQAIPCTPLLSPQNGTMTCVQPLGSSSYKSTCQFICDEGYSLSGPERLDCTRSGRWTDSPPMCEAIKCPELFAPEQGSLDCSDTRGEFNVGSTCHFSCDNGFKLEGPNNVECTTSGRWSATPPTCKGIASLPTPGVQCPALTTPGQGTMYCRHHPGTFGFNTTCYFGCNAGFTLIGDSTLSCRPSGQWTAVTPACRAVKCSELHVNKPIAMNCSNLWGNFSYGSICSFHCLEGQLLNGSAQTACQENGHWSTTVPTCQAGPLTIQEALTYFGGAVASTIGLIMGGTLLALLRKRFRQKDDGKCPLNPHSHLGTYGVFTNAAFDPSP
Procedure: (§1) Quantitative adhesion of CHO:P-selectin, CHO:E-selectin and CHO:L-selectin expressing cells was performed as described in Example 4(c), with the following modifications: COS cell and antibodies were omitted. Instead, 48-well microtiter plates (Costar) were coated for 16 hours at 4° C. with varying quantities of protein A-purified soluble PSGL-1/Fc chimeras. The unbound material was removed and the coated wells were treated with Hank's buffered saline (HBS) with 1 mg/ml BSA and 2 mM CaCl_2 for 1 hour at 4° C. Tritium labeled CHO selectin expressing cells were added and binding quantitated as described in Example 4(c).

[2] = biological target: T2, E-selectin expressed on CHO cells (CHO:E-selectin) (UniProt P16581 22-610, limits assumed); assay: plate coated with chimera; adhesion of 3H-labelled CHO:E-selectin cells (FIG. 15)
T2 construct: whole, on cells; also called E-selectin expressing CHO cells; CHO cells which express E-selectin
T2 sequence (looked up): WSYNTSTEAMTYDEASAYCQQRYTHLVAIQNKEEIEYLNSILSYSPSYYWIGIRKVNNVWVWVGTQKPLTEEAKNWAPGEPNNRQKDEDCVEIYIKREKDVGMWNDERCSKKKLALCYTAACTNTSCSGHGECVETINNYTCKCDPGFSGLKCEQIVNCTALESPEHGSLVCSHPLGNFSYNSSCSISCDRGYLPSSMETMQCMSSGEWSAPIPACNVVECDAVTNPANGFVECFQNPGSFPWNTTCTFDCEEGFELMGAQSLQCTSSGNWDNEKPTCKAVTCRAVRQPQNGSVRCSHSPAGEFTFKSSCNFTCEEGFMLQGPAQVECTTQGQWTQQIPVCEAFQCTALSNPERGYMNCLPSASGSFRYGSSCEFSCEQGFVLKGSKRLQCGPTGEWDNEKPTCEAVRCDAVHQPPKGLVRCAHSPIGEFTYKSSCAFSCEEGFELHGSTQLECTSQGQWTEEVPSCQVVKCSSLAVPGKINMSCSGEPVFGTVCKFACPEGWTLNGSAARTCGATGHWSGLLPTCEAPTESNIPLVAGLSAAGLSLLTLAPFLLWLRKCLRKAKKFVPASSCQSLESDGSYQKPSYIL
Procedure: as §1

[3] = biological target: T3, chimeric protein comprising the extracellular domain of human E-selectin and the Fc portion of human IgG1 … (human, UniProt P16581 22-556); assay: affinity precipitation from U937 membrane extracts; trace capture not excluded by the filing
T3 construct: extracellular domain; Built analogously to LEC-γ1; also called soluble E-selectin chimera; immobilized E-selectin; not shown: Fc portion of human IgG1
T3 sequence (looked up): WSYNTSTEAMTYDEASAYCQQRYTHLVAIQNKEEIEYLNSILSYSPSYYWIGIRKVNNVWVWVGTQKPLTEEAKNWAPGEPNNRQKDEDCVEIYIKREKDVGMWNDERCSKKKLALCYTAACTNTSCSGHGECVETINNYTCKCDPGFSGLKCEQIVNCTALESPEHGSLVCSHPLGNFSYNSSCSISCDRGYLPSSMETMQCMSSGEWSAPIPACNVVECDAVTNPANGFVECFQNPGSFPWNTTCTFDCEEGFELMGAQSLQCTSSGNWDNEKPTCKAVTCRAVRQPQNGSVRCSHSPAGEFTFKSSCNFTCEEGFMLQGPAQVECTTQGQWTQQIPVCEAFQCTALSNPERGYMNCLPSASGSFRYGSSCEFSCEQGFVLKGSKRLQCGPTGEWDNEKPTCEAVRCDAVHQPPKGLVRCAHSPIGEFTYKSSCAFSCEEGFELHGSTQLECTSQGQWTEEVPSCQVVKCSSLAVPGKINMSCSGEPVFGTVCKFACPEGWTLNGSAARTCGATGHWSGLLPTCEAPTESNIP

B1: ΔY148.Fc, amino acids 42-189 of SEQ ID NO:2 with amino acids 46-52 deleted (Fc fusion)
chain: QATEFLPETEPPEMLRNSTDTTPLTGPGTPESTTVEPAARRSTGLDAGGAVTELTTELANMGNLSTDSAAMEIQTTQPAATEAQTTPLAATEAQTTRLTATEAQTTPLAATEAQTTPPAATEAQTTQPTGLEAQTTAPAAM
modifications: glycosylated, co-expressed with 3/4FT
notes: also called pED.ΔY148.Fc product; not shown: NotI junction/linker of pED.Fc; Fc region of a human IgG1
**Q.** What does the source list for B1?
**A.** binding result [1]: no binding; binding result [2]: binds

B2: CD43 (leukosialin) of U937 cells (other, human, UniProt P16150 20-400, looked up)
chain: STTAVQTPTSGEPLVSTSEPLSSKMYTTSITSDPKADSTGDQTSALPPSTSINEGSPLWTSIGASTGSPLPEPTTYQEVSIKMSSVPQETPHATSHPAVPITANSLGSHTVTGGTITTNSPETSSRTSGAPVTTAASSLETSRGTSGPPLTMATVSLETSKGTSGPPVTMATDSLETSTGTTGPPVTMTTGSLEPSSGASGPQVSSVKLSTMMSPTTSTNASTVPFRNPDENSRGMLPVAVLVALLAVIVLVALLLLWRRRQKRRTGALVLSRGGKRNGVVDAWAGPAQVPEEGAVTVTVGGSGGDKGSGFPDGEGSSRRPTLTTFFGRRKSRQGSLAMEELKSGSGPSLKGEEEPLVASEDGAVDAPAPDEPEGGDGAAP
modifications: native myeloid glycosylation
**Q.** Does B2 bind [3]?
**A.** Result: no binding
